15 molecules from patent publication US20120135923A1, “Use of Melanocortins to Treat Dyslipidemia” (IPSEN PHARMA, S.A.S., priority 2009, published 2012) can be followed below.

Bridge positions count the residues as written; N and C are the ends. Square brackets hold non-standard residues; d marks the D form. Ends that are not written are not given here. 2Nal = N[C@@H](Cc1ccc2ccccc2c1)C(=O)O; d2Nal = N[C@H](Cc1ccc2ccccc2c1)C(=O)O; Bta = N[C@@H](Cc1csc2ccccc12)C(=O)O; Pen = CC(C)(S)[C@H](N)C(=O)O; Nle = CCCC[C@H](N)C(=O)O; Aib = CC(C)(N)C(=O)O; Ava = NCCCCC(=O)O; GABA = NCCCC(=O)O; βAla = NCCC(=O)O

The labels stand for the following.
B1: Nle-c(Cys-His-D-Phe-Arg-Trp-Apn-Cys)-NH2 (peptide)
peptide: [Nle]CH[dF]RW[Ava]C-NH2
modifications: disulfide 2-8; N-terminus assumed
SMILES: CCCC[C@H](N)C(=O)N[C@H]1CSSC[C@@H](C(N)=O)NC(=O)CCCCNC(=O)[C@H](Cc2c[nH]c3ccccc23)NC(=O)[C@H](CCCNC(=N)N)NC(=O)[C@@H](Cc2ccccc2)NC(=O)[C@H](Cc2c[nH]cn2)NC1=O
B2: Ac-Arg-c(Cys-His-D-Phe-Arg-Trp-Gaba-Pen)-NH2 (peptide)
peptide: Ac-RCH[dF]RW[GABA][Pen]-NH2
modifications: disulfide 2-8
SMILES: CC(=O)N[C@@H](CCCNC(=N)N)C(=O)N[C@H]1CSSC(C)(C)[C@@H](C(N)=O)NC(=O)CCCNC(=O)[C@H](Cc2c[nH]c3ccccc23)NC(=O)[C@H](CCCNC(=N)N)NC(=O)[C@@H](Cc2ccccc2)NC(=O)[C@H](Cc2c[nH]cn2)NC1=O
B3: Ac-Nle-c(Cys-D-Ala-His-D-Phe-Arg-Trp-Cys)-(Doc)2-Tyr-Gly-Arg-Lys-Lys-Arg-Arg-Gln-Arg-Arg-Arg-NH2 (peptide)
peptide: XCAHFRWCXXYGRKKRRQRRR
modifications: N-terminal acetyl; X1=Nle; D-Ala3; D-Phe5; X9=Doc; X10=Doc; Cys2-Cys8 disulfide; C-terminal amide
B4: Ac-c(Cys-Glu-His-D-2-Nal-Arg-Bal-Ala-Cys)-Pro-Pro-Lys-Asp-β-Ala-Tyr-Aib-Arg-Lys-Lys-Arg-Arg-Gln-Arg-Arg-Arg-NH2 (peptide)
peptide: Ac-CEH[d2Nal]R[Bta]ACPPKD[βAla]Y[Aib]RKKRRQRRR-NH2
modifications: disulfide 1-8
SMILES: CC(=O)N[C@H]1CSSC[C@@H](C(=O)N2CCC[C@H]2C(=O)N2CCC[C@H]2C(=O)N[C@@H](CCCCN)C(=O)N[C@@H](CC(=O)O)C(=O)NCCC(=O)N[C@@H](Cc2ccc(O)cc2)C(=O)NC(C)(C)C(=O)N[C@@H](CCCNC(=N)N)C(=O)N[C@@H](CCCCN)C(=O)N[C@@H](CCCCN)C(=O)N[C@@H](CCCNC(=N)N)C(=O)N[C@@H](CCCNC(=N)N)C(=O)N[C@@H](CCC(N)=O)C(=O)N[C@@H](CCCNC(=N)N)C(=O)N[C@@H](CCCNC(=N)N)C(=O)N[C@@H](CCCNC(=N)N)C(N)=O)NC(=O)[C@H](C)NC(=O)[C@H](Cc2csc3ccccc23)NC(=O)[C@H](CCCNC(=N)N)NC(=O)[C@@H](Cc2ccc3ccccc3c2)NC(=O)[C@H](Cc2c[nH]cn2)NC(=O)[C@H](CCC(=O)O)NC1=O
B5: Ac-c(Cys-Glu-His-D-2-Nal-Arg-2-Nal-Aib-Cys)-Pro-Pro-Lys-Asp-NH2 (peptide)
peptide: Ac-CEH[d2Nal]R[2Nal][Aib]CPPKD-NH2
modifications: disulfide 1-8
SMILES: CC(=O)N[C@H]1CSSC[C@@H](C(=O)N2CCC[C@H]2C(=O)N2CCC[C@H]2C(=O)N[C@@H](CCCCN)C(=O)N[C@@H](CC(=O)O)C(N)=O)NC(=O)C(C)(C)NC(=O)[C@H](Cc2ccc3ccccc3c2)NC(=O)[C@H](CCCNC(=N)N)NC(=O)[C@@H](Cc2ccc3ccccc3c2)NC(=O)[C@H](Cc2c[nH]cn2)NC(=O)[C@H](CCC(=O)O)NC1=O
B6: Ac-c(Cys-Glu-His-D-2-Nal-Arg-Bal-Ala-Cys)-Pro-Pro-Lys-Asp-β-Ala-Tyr-Gly-Arg-Lys-Lys-Arg-Arg-Gln-Arg-Arg-Arg-NH2 (peptide)
peptide: CEHXRXACPPKDXYGRKKRRQRRR
modifications: N-terminal acetyl; X4=D-2-Nal; X6=Bal; X13=β-Ala; Cys1-Cys8 disulfide; C-terminal amide
B7: Ac-c(Cys-Glu-His-D-2-Nal-Arg-2-Nal-Ala-Cys)-Pro-Pro-Lys-Asp-β-Ala-Tyr-Gly-Arg-Lys-Lys-Arg-Arg-Gln-Arg-Arg-Arg-NH2 (peptide)
peptide: CEHXRXACPPKDXYGRKKRRQRRR
modifications: N-terminal acetyl; X4=D-2-Nal; X6=2-Nal; X13=β-Ala; Cys1-Cys8 disulfide; C-terminal amide
B8: Ac-c(Cys-Glu-His-D-2-Nal-Arg-1-Nal-Ala-Cys)-Pro-Pro-Lys-Asp-β-Ala-Tyr-Gly-Arg-Lys-Lys-Arg-Arg-Gln-Arg-Arg-Arg-NH2 (peptide)
peptide: CEHXRXACPPKDXYGRKKRRQRRR
modifications: N-terminal acetyl; X4=D-2-Nal; X6=1-Nal; X13=β-Ala; Cys1-Cys8 disulfide; C-terminal amide
B9: Ac-D-Arg-c(Cys-His-D-Phe-Arg-Trp-Gaba-Pen)-NH2 (peptide)
peptide: Ac-[dR]CH[dF]RW[GABA][Pen]-NH2
modifications: disulfide 2-8
SMILES: CC(=O)N[C@H](CCCNC(=N)N)C(=O)N[C@H]1CSSC(C)(C)[C@@H](C(N)=O)NC(=O)CCCNC(=O)[C@H](Cc2c[nH]c3ccccc23)NC(=O)[C@H](CCCNC(=N)N)NC(=O)[C@@H](Cc2ccccc2)NC(=O)[C@H](Cc2c[nH]cn2)NC1=O
B10: Ac-c(Cys-Glu-His-D-2-Nal-Arg-Trp-Ala-Cys)-Pro-Pro-Lys-Asp-NH2 (peptide)
peptide: Ac-CEH[d2Nal]RWACPPKD-NH2
modifications: disulfide 1-8
SMILES: CC(=O)N[C@H]1CSSC[C@@H](C(=O)N2CCC[C@H]2C(=O)N2CCC[C@H]2C(=O)N[C@@H](CCCCN)C(=O)N[C@@H](CC(=O)O)C(N)=O)NC(=O)[C@H](C)NC(=O)[C@H](Cc2c[nH]c3ccccc23)NC(=O)[C@H](CCCNC(=N)N)NC(=O)[C@@H](Cc2ccc3ccccc3c2)NC(=O)[C@H](Cc2c[nH]cn2)NC(=O)[C@H](CCC(=O)O)NC1=O
B11: Hydantoin(C(O)-(Arg-Gly))-c(Cys-D-Ala-His-D-2-Nal-Arg-Trp-Cys)-NH2 (peptide)
peptide: RGCAHXRWC
modifications: residues 1-2 joined in a hydantoin ring (C(O)); D-Ala4; X6=D-2-Nal; Cys3-Cys9 disulfide; C-terminal amide

Chain of hMC4-R (human) (P32245 whole entry): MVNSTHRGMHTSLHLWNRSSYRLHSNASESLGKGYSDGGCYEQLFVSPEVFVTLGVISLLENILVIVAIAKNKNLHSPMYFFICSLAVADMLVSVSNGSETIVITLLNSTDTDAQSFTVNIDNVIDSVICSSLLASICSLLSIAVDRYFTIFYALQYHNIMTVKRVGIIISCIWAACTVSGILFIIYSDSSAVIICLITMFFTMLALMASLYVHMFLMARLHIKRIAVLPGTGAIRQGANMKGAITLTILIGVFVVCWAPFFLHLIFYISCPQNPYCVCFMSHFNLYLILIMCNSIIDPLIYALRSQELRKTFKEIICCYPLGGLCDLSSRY

The first test deals with hMC1-R (human) (UniProt Q01726). The experiment in a line: cell-based or functional assay.
Chain of hMC1-R (human) (Q01726 whole entry): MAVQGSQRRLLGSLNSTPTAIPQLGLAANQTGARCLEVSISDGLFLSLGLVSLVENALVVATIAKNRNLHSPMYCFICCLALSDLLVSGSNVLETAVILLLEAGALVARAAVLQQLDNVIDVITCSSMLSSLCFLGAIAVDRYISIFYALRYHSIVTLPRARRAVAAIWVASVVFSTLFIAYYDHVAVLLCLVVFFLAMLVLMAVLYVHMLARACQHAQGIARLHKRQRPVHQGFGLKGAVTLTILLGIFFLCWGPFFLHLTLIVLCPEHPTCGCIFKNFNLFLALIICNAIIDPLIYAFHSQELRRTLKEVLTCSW
B1: the cAMP EC50 came out at 0.31 nM.
Ac-[Nle]CH[dF]RW[GABA][Pen]-NH2 (disulfide 2-8) [Ac-Nle-c(Cys-His-D-Phe-Arg-Trp-Gaba-Pen)-NH2] came in with a cAMP EC50 of 0.28 nM.
B2 yielded a cAMP EC50 of 4.23 nM.
With B3, the cAMP EC50 was 4.7.
In turn, B4 showed a cAMP EC50 of 67.1.
Same read-out and setting: to B5 belongs 770.
The same measure, in the same setting: to B6 belongs 37.9.
B7 came in with a cAMP EC50 of 29.7.
The same measure, in the same setting: the result for B8 reads 43.3; that for B9, 8.43 nM; that for B10, 66.1.
Still for that read-out and setting: to [dF]CH[d(Et)Tyr]RW[βAla][dC]T-NH2 (disulfide 2-8) [D-Phe-c(Cys-His-D-(Et)Tyr-Arg-Trp-β-Ala-D-Cys)-Thr-NH2] belongs 0.35 nM; to GCEH[dF]RWC-NH2 (disulfide 2-8; also: residues 1-2 joined in a hydantoin ring (C(O))) [c[Hydantoin(C(O)-(Gly-Cys))-Glu-His-D-Phe-Arg-Trp-Cys]-NH2], 14.5 nM.
Molecule B11 came in with a cAMP EC50 of 96.6 nM.
On to [Nle]CH[dF]RW[GABA]C-NH2 (disulfide 2-8) [Nle-c(Cys-His-D-Phe-Arg-Trp-Gaba-Cys)-NH2], for which the cAMP EC50 is 0.37 nM.

For a further test, the target named is hMC3-R (human) (UniProt P41968). As to the kind of experiment: cell-based or functional assay.
Chain of hMC3-R (human) (P41968 whole entry): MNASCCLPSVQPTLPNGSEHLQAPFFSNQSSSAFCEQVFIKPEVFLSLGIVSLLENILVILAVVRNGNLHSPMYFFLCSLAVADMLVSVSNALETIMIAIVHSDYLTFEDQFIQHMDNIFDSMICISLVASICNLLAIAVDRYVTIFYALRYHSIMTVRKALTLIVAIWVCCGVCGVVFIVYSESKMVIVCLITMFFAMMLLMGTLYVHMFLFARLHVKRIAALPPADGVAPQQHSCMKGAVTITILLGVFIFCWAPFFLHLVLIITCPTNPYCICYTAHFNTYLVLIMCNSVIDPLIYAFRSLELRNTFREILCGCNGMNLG
With B1, the cAMP EC50 worked out at 0.27 nM.
The same measure, in the same setting: to Ac-[Nle]CH[dF]RW[GABA][Pen]-NH2 (disulfide 2-8) [Ac-Nle-c(Cys-His-D-Phe-Arg-Trp-Gaba-Pen)-NH2] belongs 0.24 nM; to B2, 8.09 nM.
Molecule B4 returned a cAMP Kb of 439.
For the molecule B5, the cAMP Kb was determined as 221.
The same measure, in the same setting: the result for B6 reads 112.
Same read-out and setting: to B7 belongs 25.6; to B8, 215.
Take B9: the cAMP EC50 was 32.4 nM.
Take B10: the cAMP Kb is 33.4.
Turning to [dF]CH[d(Et)Tyr]RW[βAla][dC]T-NH2 (disulfide 2-8) [D-Phe-c(Cys-His-D-(Et)Tyr-Arg-Trp-β-Ala-D-Cys)-Thr-NH2], the cAMP EC50 is 1.1 nM.
On to GCEH[dF]RWC-NH2 (disulfide 2-8; also: residues 1-2 joined in a hydantoin ring (C(O))) [c[Hydantoin(C(O)-(Gly-Cys))-Glu-His-D-Phe-Arg-Trp-Cys]-NH2], for which the cAMP EC50 stood at 21.8 nM.
The same measure, in the same setting: the result for B11 reads 13.1 nM; that for [Nle]CH[dF]RW[GABA]C-NH2 (disulfide 2-8) [Nle-c(Cys-His-D-Phe-Arg-Trp-Gaba-Cys)-NH2], 0.1 nM.

The next test deals with hMC5-R (human) (UniProt P33032). As to the kind of experiment: cell-based or functional assay.
Chain of hMC5-R (human) (P33032 whole entry): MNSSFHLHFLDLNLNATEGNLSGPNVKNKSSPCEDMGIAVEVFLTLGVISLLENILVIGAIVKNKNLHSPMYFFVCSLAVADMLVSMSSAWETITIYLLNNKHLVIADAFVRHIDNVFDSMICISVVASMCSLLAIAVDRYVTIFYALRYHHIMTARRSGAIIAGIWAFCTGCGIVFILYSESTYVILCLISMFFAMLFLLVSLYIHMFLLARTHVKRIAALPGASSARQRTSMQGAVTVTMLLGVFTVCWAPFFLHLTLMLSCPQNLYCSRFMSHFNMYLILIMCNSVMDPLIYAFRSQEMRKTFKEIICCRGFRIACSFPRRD
In turn, B1 came in with a cAMP EC50 of 3.1 nM.
The same measure, in the same setting: to Ac-[Nle]CH[dF]RW[GABA][Pen]-NH2 (disulfide 2-8) [Ac-Nle-c(Cys-His-D-Phe-Arg-Trp-Gaba-Pen)-NH2] belongs 3.9 nM; to B2, 23.2 nM; to B3, 147 nM.
Same read-out and setting: the result for B4 reads 582 nM.
Regarding B5, the cAMP EC50 was determined as 869 nM.
Same read-out and setting: the result for B6 reads 1800 nM.
In turn, B7 gave a cAMP EC50 of 82.9 nM.
In the case of B8, the cAMP EC50 was 1290 nM.
For B9, the cAMP EC50 stood at 2140 nM.
On the same count and under the same terms, the result for B10 reads 6.84 nM; that for [dF]CH[d(Et)Tyr]RW[βAla][dC]T-NH2 (disulfide 2-8) [D-Phe-c(Cys-His-D-(Et)Tyr-Arg-Trp-β-Ala-D-Cys)-Thr-NH2], 0.37 nM.
Same read-out and setting: to GCEH[dF]RWC-NH2 (disulfide 2-8; also: residues 1-2 joined in a hydantoin ring (C(O))) [c[Hydantoin(C(O)-(Gly-Cys))-Glu-His-D-Phe-Arg-Trp-Cys]-NH2] belongs 1780 nM; to B11, 103 nM; to [Nle]CH[dF]RW[GABA]C-NH2 (disulfide 2-8) [Nle-c(Cys-His-D-Phe-Arg-Trp-Gaba-Cys)-NH2], 1.7 nM.

Another test concerns the target hMC4-R (human) (UniProt P32245). The experiment in a line: cell-based or functional assay.
The molecule B1 showed a cAMP EC50 of 0.018 nM.
Molecule Ac-[Nle]CH[dF]RW[GABA][Pen]-NH2 (disulfide 2-8) [Ac-Nle-c(Cys-His-D-Phe-Arg-Trp-Gaba-Pen)-NH2] displayed a cAMP EC50 of 0.028 nM.
On the same count and under the same terms, the result for B2 reads 0.719 nM.
The molecule B4 gave a cAMP Kb of 46.5.
For the molecule B5, the cAMP Kb is 4.52.
For B6, the cAMP Kb came to 41.1.
Still for that read-out and setting: the result for B7 reads 7.37.
Turning to B8, the cAMP Kb turned out to be 5.87.
For B9, the cAMP EC50 is 0.959 nM.
Turning to B10, the cAMP Kb was found to be 0.687.
For [dF]CH[d(Et)Tyr]RW[βAla][dC]T-NH2 (disulfide 2-8) [D-Phe-c(Cys-His-D-(Et)Tyr-Arg-Trp-β-Ala-D-Cys)-Thr-NH2], the cAMP EC50 turned out to be 0.11 nM.
Molecule GCEH[dF]RWC-NH2 (disulfide 2-8; also: residues 1-2 joined in a hydantoin ring (C(O))) [c[Hydantoin(C(O)-(Gly-Cys))-Glu-His-D-Phe-Arg-Trp-Cys]-NH2] returned a cAMP EC50 of 0.576 nM.
The same measure, in the same setting: to B11 belongs 21.2 nM; to [Nle]CH[dF]RW[GABA]C-NH2 (disulfide 2-8) [Nle-c(Cys-His-D-Phe-Arg-Trp-Gaba-Cys)-NH2], 0.021 nM.
